1 substance from US20250289897A1, “LEPTIN RECEPTOR AGONISTIC ANTIBODY AS MONO OR COMBO THERAPIES TO TREAT OBESITY” (ELI LILLY AND COMPANY, priority 2024, published 2025) can be followed below.

The experiment deals with T1, human LEPR (Homo sapiens, UniProt P48357).
T1 construct: introducing DNA plasmids encoding full-length LEPR of different species and STAT3-luciferase reporter gene into HEK293 cells; expressed in transfected cells; host or cells: HEK293 (HEK293-STAT3Luc-hLepR1)
T1 sequence (P48357 22-1165): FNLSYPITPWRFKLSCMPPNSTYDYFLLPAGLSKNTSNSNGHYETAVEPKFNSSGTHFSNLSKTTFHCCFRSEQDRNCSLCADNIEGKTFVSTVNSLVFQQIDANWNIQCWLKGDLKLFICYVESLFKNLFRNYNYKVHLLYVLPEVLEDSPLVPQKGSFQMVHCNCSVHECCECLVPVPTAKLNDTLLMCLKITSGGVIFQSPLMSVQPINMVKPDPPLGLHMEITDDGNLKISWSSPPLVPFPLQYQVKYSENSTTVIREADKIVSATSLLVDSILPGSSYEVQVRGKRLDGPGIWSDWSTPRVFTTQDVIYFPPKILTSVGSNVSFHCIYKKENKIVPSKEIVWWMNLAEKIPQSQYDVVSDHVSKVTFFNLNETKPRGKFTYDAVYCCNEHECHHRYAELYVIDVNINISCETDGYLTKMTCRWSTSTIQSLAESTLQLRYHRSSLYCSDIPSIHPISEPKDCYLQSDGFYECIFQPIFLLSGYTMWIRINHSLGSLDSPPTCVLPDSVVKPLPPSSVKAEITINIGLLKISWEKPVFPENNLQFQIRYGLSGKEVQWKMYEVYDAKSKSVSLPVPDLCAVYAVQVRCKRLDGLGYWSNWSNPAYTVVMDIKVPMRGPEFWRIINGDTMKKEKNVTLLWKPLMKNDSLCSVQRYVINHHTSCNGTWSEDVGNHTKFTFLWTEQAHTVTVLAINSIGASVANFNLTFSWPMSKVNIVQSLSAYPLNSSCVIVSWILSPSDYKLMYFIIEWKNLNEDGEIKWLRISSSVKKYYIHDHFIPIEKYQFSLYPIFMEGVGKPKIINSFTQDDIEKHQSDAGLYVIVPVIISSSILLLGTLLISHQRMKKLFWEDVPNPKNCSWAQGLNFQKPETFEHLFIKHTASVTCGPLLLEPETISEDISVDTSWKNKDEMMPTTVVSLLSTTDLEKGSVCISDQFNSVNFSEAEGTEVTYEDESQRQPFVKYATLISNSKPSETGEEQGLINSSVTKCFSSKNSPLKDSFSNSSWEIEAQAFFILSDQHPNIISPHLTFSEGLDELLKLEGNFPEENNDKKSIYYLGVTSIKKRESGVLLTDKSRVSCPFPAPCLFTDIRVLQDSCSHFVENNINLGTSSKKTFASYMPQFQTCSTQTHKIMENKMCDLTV
Put plainly: pERK induction (AlphaLISA p-ERK1/2) in HEK293-STAT3Luc-hLepR1 cells. Format: cell-based. The method, then: Antibodies were tested for the ability to induce phosphorylation of extracellular-signal-related kinase (pERK) in HEK293-STAT3Luc-hLepR1 cells. To measure pERK induction, cells were first cultured overnight at 37° C. in 96-well plate with DMEM medium supplemented with 10% FBS. On day 2, medium was removed, cells were washed in serum-free DMEM and incubated for an additional 24-hour in serum-free DMEM. On day 3, medium was removed and 1:4 series dilutions of antibodies A, B, and C with top concentration of 200nM in serum-free DMEM were added to the cells for 15 minutes. Testing was run in duplicates. Recombinant human leptin protein (SEQ ID NO:27) was used as a positive control in this assay. An IgGI with Fc modifications to ablate binding to Fcγ receptors was used as a negative control (IgG isotype control). Phospho-ERK1/2 was assessed in the whole cell lysate by measuring the amplified luminescence with AlphaLISA SureFire Ultra p-ERK1/2 (Thr202/Tyr204) kit (PerkinElmer, #ALSU-PERK-A-HV). Data was calculated using 4 parameters sigmoidal fit of the data (SigmaPlot software). Results, expressed in Table 12 are averaged EC50 of two independent experiments.
For orientation: In Alpha technology, singlet oxygen from a donor bead excites a nearby acceptor bead.

A word on the EC50: it is the concentration giving half of the maximal effect. As for “human leptin: recombinant human leptin protein (SEQ ID NO:27), positive control”, for the setting “pERK AlphaLISA”, the “Baseline RLU” value amounted to 29762.5 RLU and the “Maximum RLU” value is listed as 137565 RLU. Also, the EC50 (pERK, 15 minutes, average of two independent experiments, read-out: EC50 (nM) ± STDEV) turned out to be 1.07 nM.
